From paper PMC3518660 (Journal of immunology (Baltimore, Md. : 1950), 2012) come the findings set out here.

Broadly, the Kd is the free concentration of one partner at which half of the binding sites on the other are occupied at equilibrium, for simple one-to-one binding.

Assay [1] addresses T1, recombinant soluble integrin αvβ3 (UniProt P06756 31-987; P05106 27-718). The assay is described as follows: SPR.
The target in assay [2] is T1, recombinant soluble integrin αvβ3. Briefly: SPR. The source holds these as a separate data set.
The target is the same in assay [3]. The assay is described as follows: ELISA. On the technique in general: ELISA stands for enzyme-linked immunosorbent assay.

Positions count from the first letter of the chain named. Names may count otherwise. Where two headings read alike, the source gives them in different places.

T1 sequence (P06756 31-987, chain 1 of 2): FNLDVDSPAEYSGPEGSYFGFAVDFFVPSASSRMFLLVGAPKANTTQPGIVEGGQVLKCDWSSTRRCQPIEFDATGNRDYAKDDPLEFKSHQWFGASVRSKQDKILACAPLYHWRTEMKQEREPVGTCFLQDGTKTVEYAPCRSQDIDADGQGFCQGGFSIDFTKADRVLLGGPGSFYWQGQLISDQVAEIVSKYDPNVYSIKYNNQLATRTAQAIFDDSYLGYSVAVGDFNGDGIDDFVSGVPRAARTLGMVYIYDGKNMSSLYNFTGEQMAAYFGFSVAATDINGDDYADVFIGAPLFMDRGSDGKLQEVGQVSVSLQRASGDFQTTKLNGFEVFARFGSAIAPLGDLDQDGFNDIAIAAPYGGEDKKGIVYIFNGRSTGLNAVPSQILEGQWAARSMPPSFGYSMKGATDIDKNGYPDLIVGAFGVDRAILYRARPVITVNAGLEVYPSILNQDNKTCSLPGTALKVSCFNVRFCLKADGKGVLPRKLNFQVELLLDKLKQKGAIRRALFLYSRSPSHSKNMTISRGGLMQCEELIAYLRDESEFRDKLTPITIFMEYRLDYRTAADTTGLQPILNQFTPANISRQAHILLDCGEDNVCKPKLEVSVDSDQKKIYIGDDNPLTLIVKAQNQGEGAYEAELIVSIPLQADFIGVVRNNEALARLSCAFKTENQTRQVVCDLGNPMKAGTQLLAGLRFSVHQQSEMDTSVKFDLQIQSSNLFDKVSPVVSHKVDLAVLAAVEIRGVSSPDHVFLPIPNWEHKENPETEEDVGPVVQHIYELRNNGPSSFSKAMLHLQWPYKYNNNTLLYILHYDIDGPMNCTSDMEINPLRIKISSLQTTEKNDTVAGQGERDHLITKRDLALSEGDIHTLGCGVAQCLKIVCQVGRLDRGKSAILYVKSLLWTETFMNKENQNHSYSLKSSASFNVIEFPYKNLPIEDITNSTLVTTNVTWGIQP
T1 sequence (P05106 27-718, chain 2 of 2): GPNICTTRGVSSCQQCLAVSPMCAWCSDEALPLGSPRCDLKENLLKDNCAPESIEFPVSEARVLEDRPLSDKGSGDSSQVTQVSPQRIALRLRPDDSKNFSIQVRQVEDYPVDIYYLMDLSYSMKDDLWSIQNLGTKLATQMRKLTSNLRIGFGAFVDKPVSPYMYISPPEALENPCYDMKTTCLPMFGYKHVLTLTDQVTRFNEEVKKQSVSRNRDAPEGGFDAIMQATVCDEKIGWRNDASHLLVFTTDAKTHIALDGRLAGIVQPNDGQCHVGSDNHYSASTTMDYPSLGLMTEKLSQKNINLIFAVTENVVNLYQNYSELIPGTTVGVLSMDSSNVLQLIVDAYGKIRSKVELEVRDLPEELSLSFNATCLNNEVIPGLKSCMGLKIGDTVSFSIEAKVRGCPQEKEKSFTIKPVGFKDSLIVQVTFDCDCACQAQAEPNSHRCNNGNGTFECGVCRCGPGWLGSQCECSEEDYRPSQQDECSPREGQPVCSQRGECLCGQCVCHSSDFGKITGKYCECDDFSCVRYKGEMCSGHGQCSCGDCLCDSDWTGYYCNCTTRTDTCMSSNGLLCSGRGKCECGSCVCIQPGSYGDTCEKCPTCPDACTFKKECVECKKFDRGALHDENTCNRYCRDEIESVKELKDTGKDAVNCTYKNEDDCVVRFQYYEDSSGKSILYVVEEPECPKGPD

B1: chemokine domain of fractalkine (FKN-CD), wild type, 6His-tagged (domain or fragment, human)
chain: QHHGVTKCNITCSKMTSKIPVALLIHYQQNQASCGKRAIILETRQHRLFCADPKEQWVKDAMQHLDRQAAALTRNG
For the molecule B1, the results for the Kd in assay [1] and in assay [2] were 6.9 nM and 11 nM, respectively.

B2: FKN-CD Lys54 to Ala mutant (K54A) (domain or fragment, human)
chain: B1 chain with K54A
As to B2, the binding result in assay [3] is “binds”.

B3: FKN-CD Arg47 to Ala mutant (R47A) (domain or fragment, human)
chain: B1 chain with R47A
On to B3, for which, in assay [3], the binding result is “binds”.

B4: FKN-CD Lys54/Lys59 to Ala mutant (K54A/K59A) (domain or fragment, human)
chain: B1 chain with K54A, K59A
As for B4, the binding result in assay [3] is on record as “binds”.
